The values that follow come from US7192728B2, “Screening assays for agents that alter inhibitor of apoptosis (IAP) protein regulation of caspase activity” (The Burnham Institute, priority 1997, dated 2007).

Test [1] addresses T1, pro-caspase-9 (Homo sapiens, UniProt P55211).
T1 construct: in vitro translated ^35S-labeled pro-caspase-9 and Apaf-1 were incubated individually or together; His6; made in house; host or cells: coupled in vitro transcription/translation in reticulocyte lysate (TNT kit, Promega)
T1 sequence (P55211 1-416): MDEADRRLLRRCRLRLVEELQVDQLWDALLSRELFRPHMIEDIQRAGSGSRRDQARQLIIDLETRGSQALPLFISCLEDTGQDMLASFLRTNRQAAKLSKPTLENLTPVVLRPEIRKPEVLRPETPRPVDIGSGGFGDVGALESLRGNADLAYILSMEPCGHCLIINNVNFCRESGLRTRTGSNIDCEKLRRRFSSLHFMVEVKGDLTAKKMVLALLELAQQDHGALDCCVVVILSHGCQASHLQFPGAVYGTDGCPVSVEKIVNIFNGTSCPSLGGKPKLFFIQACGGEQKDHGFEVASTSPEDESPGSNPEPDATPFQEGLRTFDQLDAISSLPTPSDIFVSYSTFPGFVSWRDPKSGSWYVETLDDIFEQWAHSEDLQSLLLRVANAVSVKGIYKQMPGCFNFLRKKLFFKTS
The test is described as follows: In vitro reconstituted pro-caspase-9 processing (Apaf-1, cytochrome c, dATP). Type of test: biochemical. The following applies: 0.1 μM protein; Apaf-1, 10 μM cytochrome c, 1 mM dATP.
Method: For the results shown in FIGS. 5A and 5B, in vitro translated ^35S-labeled pro-caspase-9 and Apaf-1 were incubated individually or together with 10 μM cytochrome c and 1 mM dATP. Processing of pro-caspase-9 in the absence or presence of 0.1 μM of the indicated GST-IAP or 0.1 μM Bcl-XL was then monitored by SDS-PAGE and autoradiography.
To assay caspase-9 activation in vitro, one microgram of plasmids containing cDNAs encoding pro-caspase-9 (pET21(b)-Mch-6) or Apaf-1 (pcDNA3-Apaf-1) was in vitro transcribed and translated in the presence of [^35S]-L-methionine using a coupled transcription/translation TNT kit (Promega) according to manufacturer's instructions. Proteins were desalted and exchanged into Buffer A with Bio-spin P-6 columns (BioRad). […] The reactions were analyzed by SDS-PAGE and autoradiography. For some experiments, in vitro translated His6-caspase-9 was purified by metal chromatography.

Test [2] concerns the target T1, pro-caspase-9. The test can be described thus: GST pull-down binding of in vitro translated pro-caspase-9. The settings on record: about 2 μM GST protein on glutathione-Sepharose.
Method: After extensive washing, bound proteins were analyzed by SDS-PAGE and autoradiography. As a positive control, 1.5 μl of the in vitro translated reaction (IVT) was analyzed.
For test [3], the system named is pro-caspase-9. The test can be described thus: Co-immunoprecipitation of pro-caspase-9 with myc-tagged IAPs in 293T cells. Type of test: binding, human. The following applies: anti-myc immunoprecipitation, anti-FLAG blot. As to the method:
(§1) Co-immunoprecipitations and immunoblot assays were performed as follows. […] Cells were collected 24–48 hrs later by centrifugation, washed in ice cold PBS and lysed for 20 minutes in lysis buffer (10 mM Hepes, 142 mM KCl, 5 mM MgCl2, 1 mM EGTA, 0.2% NP-40). Lysates were cleared by centrifugation at 16,000×g for 30 minutes. Myc-tagged IAP proteins were immunoprecipitated with 40 μl of anti-myc 9E10 antibody immobilized on Protein G-Sepharose (Santa Cruz) for 2 hrs. Immunoprecipitates were washed 3 times with lysis buffer, and bound proteins separated by SDS-PAGE and analyzed by immunoblotting using antibodies specific for the FLAG epitope (Kodak, Inc.), myc-epitope, or caspase-3.
Cell lysates were prepared 16 hr later for either (A) immunoblot analysis of caspase-3, or (B) DEVD-AFC. Immunoblot analysis of pro-caspase-3 was performed with lysates from cells induced to undergo apoptosis by overexpressing pro-caspase-9 in the absence or presence of the IAPs. For DEVD-AFC analysis, lysates were normalized for total protein content and assayed for hydrolysis of DEVD-AFC as described above. […] Lysates from the same cell (50 μg per lane) were also analyzed by immunoblotting using anti-FLAG and anti-myc antibodies to verify expression of […].

Another test addresses T2, caspase-7 (Homo sapiens, UniProt P55210).
T2 construct: Purified active caspase concentrations ranged from 0.1 nM to 10 nM; His6; made in house; host or cells: E. coli BL21(DE3)pLysS
T2 sequence (P55210 24-198 limits assumed): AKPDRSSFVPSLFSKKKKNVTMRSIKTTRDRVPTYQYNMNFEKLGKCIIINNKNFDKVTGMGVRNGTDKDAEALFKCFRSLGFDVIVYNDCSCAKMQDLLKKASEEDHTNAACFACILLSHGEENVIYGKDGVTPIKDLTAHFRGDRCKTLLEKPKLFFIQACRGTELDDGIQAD
T2 sequence (P55210 207-303 limits assumed): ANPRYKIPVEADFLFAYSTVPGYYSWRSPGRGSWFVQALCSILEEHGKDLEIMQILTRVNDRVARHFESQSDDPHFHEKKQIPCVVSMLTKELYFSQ
The test is described as follows: GST pull-down binding to caspase-7. The settings on record: glutathione-Sepharose beads, immunoblot. On the procedure:
(§2) Following incubation at 4° C. for 60 min, the beads were removed by centrifugation and washed twice with 100 vol 50 mM Tris (pH 7.5), 150 mM KCl, 2 mM DTT and 0.025% Triton-X100, then subjected to SDS-PAGE and immunoblot assay (see Example I.B.3).

The target of another test is T3, caspase-3 (Homo sapiens, UniProt P42574).
T3 construct: to produce the 17–20 kDa mature, fully processed large subunit of the active caspase-3 enzyme; a smaller, fully processed, subunit of about 11 kDa; His6; made in house; host or cells: E. coli BL21(DE3)pLysS
T3 sequence (P42574 29-175 limits assumed): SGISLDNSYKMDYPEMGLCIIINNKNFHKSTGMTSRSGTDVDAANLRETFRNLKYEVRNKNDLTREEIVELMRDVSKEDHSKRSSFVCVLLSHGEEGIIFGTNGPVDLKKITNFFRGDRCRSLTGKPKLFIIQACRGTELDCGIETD
T3 sequence (P42574 176-277 limits assumed): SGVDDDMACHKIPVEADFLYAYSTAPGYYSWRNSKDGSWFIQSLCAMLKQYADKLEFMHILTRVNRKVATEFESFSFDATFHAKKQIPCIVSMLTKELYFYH
The test can be described thus: GST pull-down binding to caspase-3. The following applies: glutathione-Sepharose beads, immunoblot. On the procedure:
as §2
For orientation: A western blot detects proteins with antibodies after separation by electrophoresis.

The subject of another test is 293T cells. The test is described as follows: Caspase-9-induced pro-caspase-3 processing and apoptosis in transfected 293T cells. It is filed as cell-based, human. The following applies: co-transfection with FLAG-caspase-9; for number of apoptotic 293T cells (in words): DAPI staining. As to the method:
as §1
Cell lysates were prepared 16 hr later for either (A) immunoblot analysis of caspase-3, or (B) DEVD-AFC. Immunoblot analysis of pro-caspase-3 was performed with lysates from cells induced to undergo apoptosis by overexpressing pro-caspase-9 in the absence or presence of the IAPs. For DEVD-AFC analysis, lysates were normalized for total protein content and assayed for hydrolysis of DEVD-AFC as described above. […] In panel D, IAP proteins were immunoprecipitated with anti-myc antibody immobilized on protein G-Sepharose at ˜16 hours post-transfection. Immunoblot analysis with anti-FLAG antibody was employed for detection of pro-caspase-9 in the resulting immune complexes. Lysates from the same cell (50 μg per lane) were also analyzed by immunoblotting using anti-FLAG and anti-myc antibodies to verify expression of […].

As to “XIAP: X chromosome linked inhibitor of apoptosis protein (Genbank U32974), used mostly as recombinant GST fusion or expressed from plasmid”, the “pro-caspase-9 processing in reconstituted system (in words)” value with pro-caspase-9 [1] is “completely blocked”. The “association with in vitro translated pro-caspase-9 (in words)” value in the test with pro-caspase-9 [2] is “associated with pro-caspase-9”. In addition, the “co-immunoprecipitation of the zymogen form of caspase-9 (in words)” value in the test on pro-caspase-9 [3] was “co-immunoprecipitated”. The “binding of caspase-7 (in words)” value with caspase-7 was “Specific binding”. Moreover, in the test with caspase-3, the “binding of caspase-3 (in words)” value is “Specific binding”. Besides, in the test with 293T cells, the “caspase-9-induced cleavage of pro-caspase-3 and Ac-DEVD-AFC cleavage activity (in words)” value is “markedly reduced”; the “number of apoptotic 293T cells (in words)” value was “a reduction in the number of apoptotic 293T cells”.

Take “c-IAP-2: cellular IAP protein c-IAP-2/HIAP-1/hMIHC, recombinant GST fusion or myc-tagged”: the “pro-caspase-9 processing in reconstituted system (in words)” value in the test with pro-caspase-9 [1] was “completely blocked”. Also, the “association with in vitro translated pro-caspase-9 (in words)” value in the test with pro-caspase-9 [2] is “associated with pro-caspase-9”. Besides, the “co-immunoprecipitation of the zymogen form of caspase-9 (in words)” value in the test with pro-caspase-9 [3] is “co-immunoprecipitated”. Besides, the “binding of caspase-7 (in words)” value with caspase-7 is given as “bound”. Further, the “binding of caspase-3 (in words)” value with caspase-3 is “bound”. Moreover, in the test with 293T cells, the “caspase-9-induced cleavage of pro-caspase-3 and Ac-DEVD-AFC cleavage activity (in words)” value is recorded as “markedly reduced”; the “number of apoptotic 293T cells (in words)” value is given as “a reduction in the number of apoptotic 293T cells”.
